According to patent publication US20200262916A1, “Mammalian Atg8 Proteins Control Autolysosomal Biogenesis Through SNARES” (STC. UNM, priority 2019, published 2020):

Key:
[1] = test system: HeLa cells stably expressing YFP-Parkin; assay: Parkin-dependent mitophagy, HCM quantification of mitochondrial DNA (mtDNA); assay type: cell-based; details: wild type HeLa-YFP-Parkin cells; CCCP 10 μM or oligomycin A 5 μM and antimycin A 10 μM; 16 hours
Huh7 cells = assay: Pexophagy, Western blot of peroxisomal proteins PEX14 and PMP70; assay type: cell-based; details: H2O2 0.4 mM, over a period of 6 hours
[2] = molecular target: T1, VPS33A (endogenous, a component of the HOPS complex) (UniProt Q96AX1 1-596); assay: endogenous Co-IP with mouse anti-Stx6 antibody, HeLa cells
T1 sequence (looked up): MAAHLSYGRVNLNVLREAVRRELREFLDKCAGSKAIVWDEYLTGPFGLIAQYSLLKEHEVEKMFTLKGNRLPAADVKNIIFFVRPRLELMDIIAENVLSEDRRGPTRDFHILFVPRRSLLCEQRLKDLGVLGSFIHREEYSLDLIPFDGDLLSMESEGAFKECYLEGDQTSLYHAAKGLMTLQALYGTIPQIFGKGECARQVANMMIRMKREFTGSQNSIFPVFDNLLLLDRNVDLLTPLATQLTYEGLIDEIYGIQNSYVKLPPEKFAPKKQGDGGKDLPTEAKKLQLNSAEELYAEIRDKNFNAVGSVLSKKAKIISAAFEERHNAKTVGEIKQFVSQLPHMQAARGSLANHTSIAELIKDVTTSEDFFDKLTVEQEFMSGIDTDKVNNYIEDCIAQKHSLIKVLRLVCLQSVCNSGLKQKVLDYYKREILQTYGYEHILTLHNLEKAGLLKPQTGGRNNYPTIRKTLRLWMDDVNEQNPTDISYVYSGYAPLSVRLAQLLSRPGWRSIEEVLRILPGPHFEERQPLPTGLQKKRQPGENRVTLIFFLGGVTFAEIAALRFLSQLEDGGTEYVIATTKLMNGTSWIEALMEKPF

VPS41 (endogenous) = molecular target: T2, VPS41 (endogenous) (UniProt P49754 1-854, limits assumed); assay: as above
T2 construct: also called HOPS component VPS41
T2 sequence (looked up): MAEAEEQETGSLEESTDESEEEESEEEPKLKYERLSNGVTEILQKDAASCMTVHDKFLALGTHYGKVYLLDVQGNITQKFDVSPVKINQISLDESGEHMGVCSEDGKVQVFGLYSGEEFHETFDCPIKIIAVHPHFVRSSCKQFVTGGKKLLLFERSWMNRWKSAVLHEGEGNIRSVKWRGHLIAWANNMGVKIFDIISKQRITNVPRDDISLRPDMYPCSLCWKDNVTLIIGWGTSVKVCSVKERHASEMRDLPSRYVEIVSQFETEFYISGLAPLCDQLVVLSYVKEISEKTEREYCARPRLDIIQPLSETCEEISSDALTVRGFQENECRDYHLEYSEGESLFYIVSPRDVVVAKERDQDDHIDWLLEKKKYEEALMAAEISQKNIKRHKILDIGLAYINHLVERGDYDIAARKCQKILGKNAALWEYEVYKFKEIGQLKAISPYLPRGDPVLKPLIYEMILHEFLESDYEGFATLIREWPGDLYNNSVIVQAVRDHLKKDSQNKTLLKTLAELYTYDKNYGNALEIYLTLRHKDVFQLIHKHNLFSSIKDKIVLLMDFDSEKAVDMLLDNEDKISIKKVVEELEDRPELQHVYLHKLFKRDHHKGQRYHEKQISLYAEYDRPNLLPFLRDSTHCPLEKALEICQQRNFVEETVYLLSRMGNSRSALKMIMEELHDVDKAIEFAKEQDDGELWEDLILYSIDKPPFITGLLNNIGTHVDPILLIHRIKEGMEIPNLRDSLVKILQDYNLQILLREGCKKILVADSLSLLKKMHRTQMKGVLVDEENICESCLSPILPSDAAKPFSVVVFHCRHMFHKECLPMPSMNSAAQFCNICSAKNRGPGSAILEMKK

## N#CC(C#N)=NNc1cccc(Cl)c1 [CCCP]
[1]
  mtDNA as a measure of cellular mitochondrial content: major reduction

## OO [H2O2]
Huh7 cells
  levels of peroxisomal constituents PEX14 and PMP70: decrease

B1: Vti1a (endogenous, in HeLa and U2OS cells) (other, UniProt Q96AJ9 1-217, looked up)
chain: MSSDFEGYEQDFAVLTAEITSKIARVPRLPPDEKKQMVANVEKQLEEAKELLEQMDLEVREIPPQSRGMYSNRMRSYKQEMGKLETDFKRSRIAYSDEVRNELLGDDGNSSENQRAHLLDNTERLERSSRRLEAGYQIAVETEQIGQEMLENLSHDREKIQRARERLRETDANLGKSSRILTGMLRRIIQNRILLVILGIIVVITILMAITFSVRRH
[2]
  binding result: no binding

B2: Stx6 (endogenous, precipitated with mouse anti-Stx6 antibody from HeLa cells) (other, UniProt O43752 2-255, looked up)
chain: SMEDPFFVVKGEVQKAVNTAQGLFQRWTELLQDPSTATREEIDWTTNELRNNLRSIEWDLEDLDETISIVEANPRKFNLDATELSIRKAFITSTRQVVRDMKDQMSTSSVQALAERKNRQALLGDSGSQNWSTGTTDKYGRLDRELQRANSHFIEEQQAQQQLIVEQQDEQLELVSGSIGVLKNMSQRIGGELEEQAVMLEDFSHELESTQSRLDNVMKKLAKVSHMTSDRRQWCAIAILFAVLLVVLILFLVL
notes: also called syntaxin 6
VPS41 (endogenous)
  binding result: binds
[2]
  binding result: no binding
